# ± gives the standard error. For some assays here: Variants at the floor of the assay were thinned out.
# B1: glmS ribozyme (parent)
# chain: AUAAAAGCGCCAGAACUACAGAAAUGUAGUUGACGAGGAGGAGGUUUAUCGAAUUUUCGGCGGAUGCCUCCAAA
# Columns and labels:
# Settings in all cases: with glucosamine-6-phosphate
# glucosamine-6-phosphate [1] = variants of: B1; test: kcat; higher = faster cleavage; RNA array
# Method in brief: (§1)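 Weighted Michaelis–Menten fits across concentrations supplied kcat and KM, based on kobs from one- or two-exponential decay fits to normalised per-tile medians. The data came from barcoded ribozyme variants transcribed in situ by E. coli RNA polymerase on sequenced MiSeq chips and tracked at 37 °C by a hybridised Cy3 probe. Glucosamine-6-phosphate (40 μM to 10 mM) in HEPES/KCl/Mg(OAc)2 buffer was flowed in.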
# glucosamine-6-phosphate [2] = variants of: B1; test: self-cleavage kobs at 640 uM GlcN6P; higher = faster cleavage; RNA array
# Method in brief: as §1
# glucosamine-6-phosphate [3] = variants of: B1; test: self-cleavage kobs at 40 uM GlcN6P; higher = faster cleavage; RNA array
# Method in brief: as §1
# glucosamine-6-phosphate [4] = variants of: B1; test: self-cleavage kobs at 160 uM GlcN6P; higher = faster cleavage; RNA array
# Method in brief: as §1
# glucosamine-6-phosphate [5] = variants of: B1; test: self-cleavage kobs at 2500 uM GlcN6P; higher = faster cleavage; RNA array
# Method in brief: as §1
# glucosamine-6-phosphate [6] = variants of: B1; test: self-cleavage kobs at 10000 uM GlcN6P; higher = faster cleavage; RNA array
# Method in brief: as §1
# glucosamine-6-phosphate [7] = variants of: B1; test: KM; higher = weaker cofactor use; RNA array
# Method in brief: as §1
Variant,kcat (glucosamine-6-phosphate [1]) [s⁻¹],self-cleavage kobs at 640 uM GlcN6P (glucosamine-6-phosphate [2]) [s⁻¹],self-cleavage kobs at 40 uM GlcN6P (glucosamine-6-phosphate [3]) [s⁻¹],self-cleavage kobs at 160 uM GlcN6P (glucosamine-6-phosphate [4]) [s⁻¹],self-cleavage kobs at 2500 uM GlcN6P (glucosamine-6-phosphate [5]) [s⁻¹],self-cleavage kobs at 10000 uM GlcN6P (glucosamine-6-phosphate [6]) [s⁻¹],KM (glucosamine-6-phosphate [7]) [µM]
AUAAAAGCGCCAGAACUACAGAAAUGUAGUUGAUGAGGAGGAGGUUUAUCGAAUUUUCGGCGGAUGCCCCCAAA,< 1e-05,–,–,–,–,–,–
AUAAAAGCGCCAGAACUACAGAAAUGUAGUUGUCGAGGAGGAGGUUUAUCGAAAUUUCGGCGGAUGCAUCCAAA,2.8e-05 ± 3.4e-06,–,–,–,–,–,–
AUAAAAGCGCCAGAACUACAGAAAUGUAGUUGAAGAGUAGGAGGUUUAUCGAAUUUUCGGCGGAUGCCUCCAAA,< 1e-05,< 1e-05,–,–,–,–,–
AUAAAAGCGCCAGAACUACAGAAAUGUAGUUGUCGAGGAGGAGGUUUAACGAAUUUUUGGCGGAUGCCUCCAAA,< 1e-05,–,< 1e-05,–,–,–,–
AUAAAAGCGCCAGAACUACAGAAAUGUAGUUGACUCGGAGGAGGUUUAUCGAAUUUUCGGCGGAUGCCUCCAAA,< 1e-05,–,< 1e-05,< 1e-05,< 1e-05,< 1e-05,–
AUAAAAGCGCCAGAACUACAGAAAUGUAGUUGUCGAGGAGGAGGUUUAUCGAAUUUUCGGCGGAUGCCUCAAAA,4.74e-05 ± 6.5e-07,–,< 1e-05,–,3.52e-05 ± 8.5e-06,4.32e-05 ± 6.2e-06,919 ± 65
AUAAAAGCGCCAGAACUACAGAAAUGUAGUUGAAGAGGAGGAGGUUUAUCUAAUUUUCGGCGGAUGCCUCCAAA,0.000727 ± 0.00012,0.000141 ± 3e-05,–,–,0.000354 ± 6.1e-05,0.000537 ± 4.9e-05,3280 ± 1200
AUAAAAGCGCCAGAACUACAGAAAUGUAGUUGUCGAGGAGGAGGUUUAUCGAAUUUACGGCGGAUGCCUCCAAA,< 1e-05,–,–,–,–,–,–
AUAAAAGCGCCAGAACUACAGAAAUGUAGUUGACAAAGAGGAGGUUUAUCGAAUUUUCGGCGGAUGCCUCCAAA,< 1e-05,–,–,< 1e-05,–,–,–
AUAAAAGCGCCAGAACUACAGAAAUGUAGUUGAUAAGGAGGAGGUUUAUCGAAUUUUCGGCGGAUGCUUCCAAA,1.41e-05 ± 3.1e-06,–,–,–,–,–,–
AUAAAAGCGCCAGAACUACAGAAAUGUAGUUGAGGAGGAGGAGGUUUAUCGAAUUUUCGGCGGAUGACUCCAAA,1.49e-05 ± 6.7e-06,–,–,< 1e-05,–,–,–
AUAAAAGCGCCAGAACUACAGAAAUGUAGUUGAGGAGGAGGAGGUUUAUCGAAUUUUCGGCGGAUGCCUGCAAA,1.99e-05 ± 6.6e-07,–,–,–,–,–,234 ± 89
AUAAAAGCGCCAGAACUACAGAAAUGUAGUUGAGGAGGAGGAGGUUUAUCGAAUUGUCGGCGGAUGCCUUCAAA,3.47e-05 ± 8.1e-06,3.21e-05 ± 1.5e-05,–,–,4.52e-05 ± 2.2e-05,–,–
AUAAAAGCGCCAGAACUACAGAAAUGUAGUUGAAGAGGAGGAGGUGUAUCGAAUUUUCGGCGGAUGCCUCCAAA,< 1e-05,< 1e-05,< 1e-05,–,< 1e-05,< 1e-05,–
AUAAAAGCGCCAGAACUACAGAAAUGUAGUUGAAGAUGAGGAGGUUUAUCGAAUUUUCGGCGGAUGCUUCCAAA,< 1e-05,–,< 1e-05,–,–,–,–
AUAAAAGCGCCAGAACUACAGAAAUGUAGUUGAGGAUGAGGAGGUUUAUCGAAUUUUCGGCGGAUGCCUCCAAA,< 1e-05,< 1e-05,–,–,–,< 1e-05,–
AUAAAAGCGCCAGAACUACAGAAAUGUAGUUGUCGAGGAGGAGGUUUAUCGAAUUUUCGGCGGAUACCUCCAAA,6.76e-05 ± 1.2e-06,–,–,–,3.2e-05 ± 1e-05,5.28e-05 ± 6.4e-06,2790 ± 180
AUAAAAGCGCCAGAACUACAGAAAUGUAGUUGUCGAGGAGGAGGUUUAUCGAAUUUUCGGCGGAUCCCUCCAAA,1.44e-05 ± 2.1e-06,–,–,–,–,–,3040 ± 1500
AUAAAAGCGCCAGAACUACAGAAAUGUAGUUGAAGAGGAGGAGGUUUAUCUAAUUUUCGGCGGAUGUCUCCAAA,0.000275 ± 1.8e-05,4.9e-05 ± 2e-05,–,–,0.00014 ± 3.7e-05,0.000213 ± 4.5e-05,2730 ± 390
AUAAAAGCGCCAGAACUACAGAAAUGUAGUUGAUGAGGAGGAGGUUUAUCGAAUUUUCGGCGGAUGCAUCCAAA,1.2e-05 ± 1.8e-06,–,–,–,–,–,–
AUAAAAGCGCCAGAACUACAGAAAUGUAGUUGAGGAGGAGGAGGUUUAUCGAAUUUUCGGCGGAUGCGUCCAAA,2.55e-05 ± 1e-05,–,–,–,–,–,–
AUAAAAGCGCCAGAACUACAGAAAUGUAGUUGAGGAGGAGGAGGUUUAUCGAAUUUUCGGCGGAUGCCACCAAA,3.79e-05 ± 1.1e-05,5.16e-05 ± 1.3e-05,–,–,3.05e-05 ± 1.3e-05,–,–
AUAAAAGCGCCAGAACUACAGAAAUGUAGUUGACCAGGAGGAGGUUUAUGGAAUUUUCGGCGGAUGCCUCCAAA,0.000276 ± 6.8e-05,4.8e-05 ± 1.6e-05,3.26e-05 ± 1.4e-05,7.69e-05 ± 3.7e-05,0.000107 ± 1.2e-05,0.000205 ± 1.5e-05,–
AUAAAAGCGCCAGAACUACAGAAAUGUAGUUGUCGAGGAGGAGGUUUAUCGAAAUUUCGGCGGAUGCCUACAAA,4.75e-05 ± 1.3e-05,5.86e-05 ± 2e-05,–,–,–,–,–
AUAAAAGCGCCAGAACUACAGAAAUGUAGUUGUCGAGGAGGAGGUUUAUCGAAUUUUCGGCGGAUGCCUUCAAA,0.000127 ± 1.1e-05,3.24e-05 ± 9.8e-06,–,–,5.5e-05 ± 8.7e-06,0.0001 ± 6.7e-06,2760 ± 730
AUAAAAGCGCCAGAACUACAGAAAUGUAGUUGAUGAGGAGGAGGUUUGUCGAAUUUUCGGCGGAUGCAUCCAAA,< 1e-05,–,< 1e-05,–,< 1e-05,–,–
